Molecular target: T1, Recombinant soluble integrin αvβ3 (UniProt P06756 31-992; P05106 27-718)
T1 construct: Soluble heterodimer made 'as described [22]'; also called soluble αvβ3; αvβ3 protein
Experiment: SPR; soluble αvβ3 immobilized on CM5 chip, HBD as analyte, 1 mM Mn2+

T1 sequence (P06756 31-992, chain 1 of 2): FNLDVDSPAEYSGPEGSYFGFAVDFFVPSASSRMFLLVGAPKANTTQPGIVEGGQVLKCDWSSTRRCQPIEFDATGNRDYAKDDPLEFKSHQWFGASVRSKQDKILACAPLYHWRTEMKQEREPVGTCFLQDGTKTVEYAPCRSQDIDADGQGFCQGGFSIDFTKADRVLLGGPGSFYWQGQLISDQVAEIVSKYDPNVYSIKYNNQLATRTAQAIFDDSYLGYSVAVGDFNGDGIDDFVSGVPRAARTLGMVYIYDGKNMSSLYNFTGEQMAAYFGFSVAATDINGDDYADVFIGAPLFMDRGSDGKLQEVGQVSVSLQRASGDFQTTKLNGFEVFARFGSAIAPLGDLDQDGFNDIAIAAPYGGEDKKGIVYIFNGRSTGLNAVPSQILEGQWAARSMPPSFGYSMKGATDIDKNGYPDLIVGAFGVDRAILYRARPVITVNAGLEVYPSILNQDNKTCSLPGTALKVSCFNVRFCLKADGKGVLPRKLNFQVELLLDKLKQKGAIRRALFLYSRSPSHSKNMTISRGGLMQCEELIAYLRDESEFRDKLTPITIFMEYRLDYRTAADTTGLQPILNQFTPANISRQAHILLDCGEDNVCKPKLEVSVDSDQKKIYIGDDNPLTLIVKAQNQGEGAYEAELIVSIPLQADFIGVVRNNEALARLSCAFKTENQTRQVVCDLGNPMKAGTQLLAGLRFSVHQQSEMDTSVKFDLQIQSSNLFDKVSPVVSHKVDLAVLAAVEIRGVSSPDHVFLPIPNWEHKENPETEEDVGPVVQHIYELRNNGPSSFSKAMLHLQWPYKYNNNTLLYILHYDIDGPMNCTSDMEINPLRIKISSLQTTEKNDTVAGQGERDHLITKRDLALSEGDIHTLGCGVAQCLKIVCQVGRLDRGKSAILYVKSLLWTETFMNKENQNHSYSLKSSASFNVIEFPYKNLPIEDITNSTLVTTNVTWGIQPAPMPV
T1 sequence (P05106 27-718, chain 2 of 2): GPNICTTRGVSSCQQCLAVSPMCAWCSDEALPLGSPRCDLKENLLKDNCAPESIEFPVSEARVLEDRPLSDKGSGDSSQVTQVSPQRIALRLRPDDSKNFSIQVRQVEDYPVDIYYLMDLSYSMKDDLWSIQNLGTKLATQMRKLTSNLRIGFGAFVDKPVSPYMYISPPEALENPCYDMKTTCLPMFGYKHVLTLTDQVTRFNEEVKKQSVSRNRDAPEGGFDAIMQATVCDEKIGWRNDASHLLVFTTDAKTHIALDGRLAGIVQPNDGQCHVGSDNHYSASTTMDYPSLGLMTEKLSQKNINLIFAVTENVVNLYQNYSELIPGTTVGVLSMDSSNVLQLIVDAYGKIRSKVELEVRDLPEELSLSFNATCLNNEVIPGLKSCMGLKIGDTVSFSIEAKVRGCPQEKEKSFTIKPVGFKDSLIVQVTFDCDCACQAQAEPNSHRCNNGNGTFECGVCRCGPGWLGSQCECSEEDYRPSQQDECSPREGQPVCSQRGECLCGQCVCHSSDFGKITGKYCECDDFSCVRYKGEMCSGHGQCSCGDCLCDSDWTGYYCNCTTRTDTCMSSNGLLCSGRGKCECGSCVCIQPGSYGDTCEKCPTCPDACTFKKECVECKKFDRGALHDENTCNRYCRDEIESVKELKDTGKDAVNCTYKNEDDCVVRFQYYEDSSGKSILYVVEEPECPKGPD

Kd: 470 nM
B1: VEGF165 heparin-binding domain (HBD, residues 111-165), wild type (ligand)
chain: QALARASGRGGRVARRGAEESGPPHSPSRRGSASRAGPGRASETMNFLLSWVHWS

Source: US20250092106A1 (University of California, published 2025)
